Assay results reported in patent US20180141977A1 (NORWEGIAN UNIVERSITY OF SCIENCE AND TECHNOLOGY NTNU, published 2018).

Target: T1, β-clamp protein from E. coli (E. coli, UniProt P0A988 1-366, labeled with a fluorescent molecule (site not stated))
T1 construct: Fluorescently labelled for microscale thermophoresis; also called sliding clamp
Test: microscale thermophoresis, fluorescently labelled β-clamp, peptide titrated (table cell the 66th table, row 38, column 4 prints 'Nd')

T1 sequence (P0A988 whole entry): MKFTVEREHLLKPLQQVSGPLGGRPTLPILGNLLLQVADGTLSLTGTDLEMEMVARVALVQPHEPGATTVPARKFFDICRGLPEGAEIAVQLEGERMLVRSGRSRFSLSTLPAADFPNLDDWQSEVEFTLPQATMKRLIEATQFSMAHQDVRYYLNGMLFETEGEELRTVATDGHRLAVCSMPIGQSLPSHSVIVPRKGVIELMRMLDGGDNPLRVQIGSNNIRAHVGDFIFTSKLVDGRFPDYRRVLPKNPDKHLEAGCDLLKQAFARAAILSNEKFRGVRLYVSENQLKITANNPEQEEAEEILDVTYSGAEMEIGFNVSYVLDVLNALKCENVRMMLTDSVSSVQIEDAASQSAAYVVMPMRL

B1: R11 peptide (SEQ ID NO: 337) (peptide)
peptide: RRRRRRRRRRR
notes: Control peptide without APIM motif; also called cell penetrating peptide
B1: no binding.
